Tests used:
[1] = biological target: amyloid β-derived diffusible ligands (ADDLs), oligomers of Aβ1-42; assay: solution-phase equilibrium titration, free antibody read by ELISA on ADDL-coated plate, GRAFIT fit
Aβ1-20 peptide = assay: as above
[2] = biological target: fibrillar Aβ (Aβ1-42 fibrils); assay: as above
Aβ1-40 monomer = assay: as above
biotinylated ADDLs [3] = assay: ELISA on coated antigen, chemiluminescence; antibody at 0 timepoint
Aβ1-42 monomer = assay: ELISA, IgG2 antibodies
biotinylated ADDLs [4] = assay: ELISA on coated antigen, chemiluminescence; antibody stored 1 month at 4°
biotinylated ADDLs [5] = assay: ELISA on coated antigen, chemiluminescence; antibody stored 1 month at 25°
biotinylated ADDLs [6] = assay: ELISA on coated antigen, chemiluminescence; antibody stored 1 month at 40°

Chain of Aβ1-20 peptide (peptide, as listed by the source): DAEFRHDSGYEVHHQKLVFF

Kd [1] [nM]	Kd (Aβ1-20 peptide) [nM]	Kd [2] [nM]	Kd (Aβ1-40 monomer) [nM]	EC50 (biotinylated ADDLs [3]) [nM]	EC50 (Aβ1-42 monomer) [nM]	EC50 (biotinylated ADDLs [4]) [nM]	EC50 (biotinylated ADDLs [5]) [nM]	EC50 (biotinylated ADDLs [6]) [nM]	Substance
0.57	19.3	1.15	6.15						WO-2 (antibody)
				1.1	18	1.7	2.1	5.9	anti-ADDL antibody 19.3

Source: patent publication US20130130288A1
